Assays:
HisFlag-Mlh1;Mlh3 [1] = biological target: T1, HisFlag-Mlh1;Mlh3 (Saccharomyces cerevisiae (S288c strain …, UniProt P38920;Q12083 1-769;1-715, |)); experiment: EMSA; Hill slope 2.0 +/- 0.05; 5 mM EDTA; EMSA: 25 mM Tris-HCl pH 7.5, 15% glycerol, 100 mM NaCl, 2 mM DTT, 5 mM EDTA, 1 mg/ml BSA, 30 min 30 C, 1 nM DNA; pull-down: similar, 10% glycerol, 0.2 mg/ml BSA, 0.1% Triton X-100, 4 C; conditions: protein: recombinant;recombinant; tags: N-terminal 6xHis-2xFlag;none; copies: 1;1; label: 5'-32P when used as probe; four-way junction, 40 bp arms
T1 sequence 1: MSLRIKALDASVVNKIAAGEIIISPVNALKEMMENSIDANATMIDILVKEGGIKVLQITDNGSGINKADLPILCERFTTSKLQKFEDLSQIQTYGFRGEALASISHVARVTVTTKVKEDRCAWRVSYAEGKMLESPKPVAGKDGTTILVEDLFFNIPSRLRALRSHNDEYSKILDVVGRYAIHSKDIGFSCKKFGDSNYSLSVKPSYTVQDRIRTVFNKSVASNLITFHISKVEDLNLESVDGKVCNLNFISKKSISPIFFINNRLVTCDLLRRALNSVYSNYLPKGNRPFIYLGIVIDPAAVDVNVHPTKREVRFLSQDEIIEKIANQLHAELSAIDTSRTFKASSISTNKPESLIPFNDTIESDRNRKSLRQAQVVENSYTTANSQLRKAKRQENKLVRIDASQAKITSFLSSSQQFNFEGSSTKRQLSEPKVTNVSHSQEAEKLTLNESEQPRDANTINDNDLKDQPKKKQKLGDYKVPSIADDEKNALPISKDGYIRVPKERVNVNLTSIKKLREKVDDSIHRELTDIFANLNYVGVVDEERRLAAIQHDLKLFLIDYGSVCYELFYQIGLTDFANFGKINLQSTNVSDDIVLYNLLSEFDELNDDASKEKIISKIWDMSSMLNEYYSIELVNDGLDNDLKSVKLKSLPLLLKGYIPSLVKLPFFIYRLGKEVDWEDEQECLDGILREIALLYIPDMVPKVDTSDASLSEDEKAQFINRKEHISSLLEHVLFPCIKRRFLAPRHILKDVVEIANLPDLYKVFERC
T1 sequence 2: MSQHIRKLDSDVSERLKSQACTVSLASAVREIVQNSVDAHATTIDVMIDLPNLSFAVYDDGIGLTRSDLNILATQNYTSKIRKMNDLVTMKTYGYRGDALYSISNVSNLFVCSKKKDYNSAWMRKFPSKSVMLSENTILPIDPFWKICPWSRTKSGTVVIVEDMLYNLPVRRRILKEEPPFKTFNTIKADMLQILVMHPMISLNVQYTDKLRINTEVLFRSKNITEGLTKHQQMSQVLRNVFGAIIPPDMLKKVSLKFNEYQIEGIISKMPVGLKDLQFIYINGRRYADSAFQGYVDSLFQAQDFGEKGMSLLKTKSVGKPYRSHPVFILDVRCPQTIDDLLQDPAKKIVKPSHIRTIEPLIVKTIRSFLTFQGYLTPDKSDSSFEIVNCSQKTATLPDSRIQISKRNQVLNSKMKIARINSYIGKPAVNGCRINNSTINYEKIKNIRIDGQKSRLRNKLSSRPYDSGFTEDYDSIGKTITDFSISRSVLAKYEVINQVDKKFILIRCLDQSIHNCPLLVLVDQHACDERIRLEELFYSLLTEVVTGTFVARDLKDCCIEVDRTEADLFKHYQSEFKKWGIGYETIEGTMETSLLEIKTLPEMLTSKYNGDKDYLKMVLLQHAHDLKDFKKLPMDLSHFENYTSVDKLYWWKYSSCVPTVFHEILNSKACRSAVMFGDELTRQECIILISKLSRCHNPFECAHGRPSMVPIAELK

[2] = biological target: T2, Mlh1 untagged;HisFlag-Mlh3 (Saccharomyces cerevisiae (S288c strain …, UniProt P38920;Q12083 1-769;1-715, |)); experiment: FeBABE footprinting; Mlh3 linker enriched; EMSA: 25 mM Tris-HCl pH 7.5, 15% glycerol, 100 mM NaCl, 2 mM DTT, 5 mM EDTA, 1 mg/ml BSA, 30 min 30 C, 1 nM DNA; pull-down: similar, 10% glycerol, 0.2 mg/ml BSA, 0.1% Triton X-100, 4 C; conditions: protein: recombinant;recombinant; tags: none;N-terminal 6xHis-2xFlag; copies: 1;1; label: 3'-biotin on strand 1; four-way junction, 40 bp arms
T2 sequence 1: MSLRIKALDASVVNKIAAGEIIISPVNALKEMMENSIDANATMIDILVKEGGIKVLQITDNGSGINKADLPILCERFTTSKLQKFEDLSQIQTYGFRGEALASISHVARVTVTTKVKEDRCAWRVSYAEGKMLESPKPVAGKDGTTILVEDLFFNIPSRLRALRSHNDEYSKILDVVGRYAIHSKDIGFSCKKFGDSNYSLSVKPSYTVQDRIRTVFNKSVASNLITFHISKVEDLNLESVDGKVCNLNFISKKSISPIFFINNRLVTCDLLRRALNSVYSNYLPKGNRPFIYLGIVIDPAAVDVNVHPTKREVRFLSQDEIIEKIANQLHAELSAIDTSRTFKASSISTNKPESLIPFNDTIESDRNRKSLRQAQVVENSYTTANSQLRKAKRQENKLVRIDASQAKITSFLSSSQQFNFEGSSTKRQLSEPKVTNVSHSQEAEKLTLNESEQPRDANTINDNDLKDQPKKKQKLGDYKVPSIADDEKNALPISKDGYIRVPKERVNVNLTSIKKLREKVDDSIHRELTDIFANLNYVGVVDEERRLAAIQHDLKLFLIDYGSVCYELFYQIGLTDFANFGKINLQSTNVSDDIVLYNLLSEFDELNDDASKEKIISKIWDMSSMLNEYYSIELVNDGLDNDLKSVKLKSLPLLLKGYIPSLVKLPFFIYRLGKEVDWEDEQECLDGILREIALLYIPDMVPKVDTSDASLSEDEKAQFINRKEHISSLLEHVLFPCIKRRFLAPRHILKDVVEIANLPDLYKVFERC
T2 sequence 2: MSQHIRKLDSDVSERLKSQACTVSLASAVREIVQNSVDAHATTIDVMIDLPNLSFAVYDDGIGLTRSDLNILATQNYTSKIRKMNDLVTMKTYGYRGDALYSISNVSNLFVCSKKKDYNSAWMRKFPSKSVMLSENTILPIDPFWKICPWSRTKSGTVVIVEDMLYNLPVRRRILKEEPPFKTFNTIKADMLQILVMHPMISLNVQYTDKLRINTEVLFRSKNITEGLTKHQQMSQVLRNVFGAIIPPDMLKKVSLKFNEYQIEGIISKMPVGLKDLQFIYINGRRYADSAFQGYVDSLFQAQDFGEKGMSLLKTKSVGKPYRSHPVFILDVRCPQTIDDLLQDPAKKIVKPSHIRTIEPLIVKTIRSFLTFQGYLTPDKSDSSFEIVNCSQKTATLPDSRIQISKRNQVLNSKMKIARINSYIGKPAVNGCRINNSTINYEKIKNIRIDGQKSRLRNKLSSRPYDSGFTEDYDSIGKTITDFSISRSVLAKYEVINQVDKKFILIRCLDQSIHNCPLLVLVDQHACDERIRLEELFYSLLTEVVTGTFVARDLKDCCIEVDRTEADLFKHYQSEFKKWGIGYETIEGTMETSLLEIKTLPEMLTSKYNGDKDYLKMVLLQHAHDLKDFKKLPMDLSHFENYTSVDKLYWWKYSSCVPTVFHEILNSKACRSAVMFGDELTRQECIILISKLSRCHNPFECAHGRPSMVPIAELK

HisFlag-Mlh1;Mlh3 [3] = biological target: T1, HisFlag-Mlh1;Mlh3; experiment: FeBABE footprinting; mostly Mlh1 linker; EMSA: 25 mM Tris-HCl pH 7.5, 15% glycerol, 100 mM NaCl, 2 mM DTT, 5 mM EDTA, 1 mg/ml BSA, 30 min 30 C, 1 nM DNA; pull-down: similar, 10% glycerol, 0.2 mg/ml BSA, 0.1% Triton X-100, 4 C; conditions: protein: recombinant;recombinant; tags: N-terminal 6xHis-2xFlag;none; copies: 1;1; label: 3'-biotin on strand 1; four-way junction, 40 bp arms
HisFlag-Mlh1;Mlh3 [4] = biological target: T1, HisFlag-Mlh1;Mlh3; experiment: competition; labeled poly-dT 80 nt; 500x excess in nt; EMSA: 25 mM Tris-HCl pH 7.5, 15% glycerol, 100 mM NaCl, 2 mM DTT, 5 mM EDTA, 1 mg/ml BSA, 30 min 30 C, 1 nM DNA; pull-down: similar, 10% glycerol, 0.2 mg/ml BSA, 0.1% Triton X-100, 4 C; conditions: protein: recombinant;recombinant; tags: N-terminal 6xHis-2xFlag;none; copies: 1;1
HisFlag-Mlh1;Mlh3 [5] = biological target: T1, HisFlag-Mlh1;Mlh3; experiment: EMSA; Hill slope 2.9 +/- 0.27; 5 mM EDTA; EMSA: 25 mM Tris-HCl pH 7.5, 15% glycerol, 100 mM NaCl, 2 mM DTT, 5 mM EDTA, 1 mg/ml BSA, 30 min 30 C, 1 nM DNA; pull-down: similar, 10% glycerol, 0.2 mg/ml BSA, 0.1% Triton X-100, 4 C; conditions: protein: recombinant;recombinant; tags: N-terminal 6xHis-2xFlag;none; copies: 1;1; label: 5'-32P when used as probe
[6] = biological target: T2, Mlh1 untagged;HisFlag-Mlh3; experiment: FeBABE footprinting; cleavage in Mlh3 N-terminal domain and linker; EMSA: 25 mM Tris-HCl pH 7.5, 15% glycerol, 100 mM NaCl, 2 mM DTT, 5 mM EDTA, 1 mg/ml BSA, 30 min 30 C, 1 nM DNA; pull-down: similar, 10% glycerol, 0.2 mg/ml BSA, 0.1% Triton X-100, 4 C; conditions: protein: recombinant;recombinant; tags: none;N-terminal 6xHis-2xFlag; copies: 1;1; label: 3'-biotin
HisFlag-Mlh1;Mlh3 [7] = biological target: T1, HisFlag-Mlh1;Mlh3; experiment: FeBABE footprinting; cleavage in Mlh1 N-terminal domain and linker; EMSA: 25 mM Tris-HCl pH 7.5, 15% glycerol, 100 mM NaCl, 2 mM DTT, 5 mM EDTA, 1 mg/ml BSA, 30 min 30 C, 1 nM DNA; pull-down: similar, 10% glycerol, 0.2 mg/ml BSA, 0.1% Triton X-100, 4 C; conditions: protein: recombinant;recombinant; tags: N-terminal 6xHis-2xFlag;none; copies: 1;1; label: 3'-biotin

B1: HJ80 (cb095-098) (structured_DNA)
DNA 1: CTAGTATAGAGCCGGCGCGCCATGTCTAGATAGCGTTAGGTCTGCCGAATAGTACTACTCGGATCCCGAGCGAACCACGC
DNA 2: GCGTGGTTCGCTCGGGATCCGAGTAGTACTATTCGGCAGAGGATTCGAATAGGCCTAATCGAATTCCGCCATCGATGCAC
DNA 3: GTGCATCGATGGCGGAATTCGATTAGGCCTATTCGAATCCAGACGCGAGTAGATCTTCACGGTACCCGCGGTTACCCGTG
DNA 4: CACGGGTAACCGCGGGTACCGTGAAGATCTACTCGCGTCTCCTAACGCTATCTAGACATGGCGCGCCGGCTCTATACTAG
B1 gave a Kd (HisFlag-Mlh1;Mlh3 [1]) of 72.9 nM.

B2: HJ+1 (cb256, 351, 369, 98) (structured_DNA)
DNA 1: CTAGTATAGAGCCGGCGCGCCATGTCTAGATAGCGTTAGGTCTGCCGAATAGTACTACTCGGATCCCGAGCGAACCACGC
DNA 2: GCGTGGTTCGCTCGGGATCCGAGTAGTACTATTCGGCAGAGGATTCGAATAGGCCTAATCGAATTCCGCCATCGATGCAC
DNA 3: GTGCATCGATGGCGGAATTCGATTAGGCCTATTCGAATCCAGACGCGAGTAGATCTTCACGGTACCCGCGGTTACCCGTG
DNA 4: CACGGGTAACCGCGGGTACCGTGAAGATCTACTCGCGTCTCCTAACGCTATCTAGACATGGCGCGCCGGCTCTATACTAG
modifications: phosphorothioates in strands 2 and 3 (segment 1), FeBABE-conjugated
B2: binds [2]; binds (HisFlag-Mlh1;Mlh3 [3]).

TTTTTTTTTT (ssDNA) [ssDNA 10 nt competitor (poly-dT?)]: no binding (HisFlag-Mlh1;Mlh3 [4]).

B3: ssDNA80 (cb099, poly-dT) (ssDNA)
DNA: TTTTTTTTTTTTTTTTTTTTTTTTTTTTTTTTTTTTTTTTTTTTTTTTTTTTTTTTTTTTTTTTTTTTTTTTTTTTTTTT
Binder B3 has a Kd (HisFlag-Mlh1;Mlh3 [5]) of 45.9 nM.

B4: ssDNA+ (cb361) (ssDNA)
DNA: TTTTTTTTTTTTTTTTTTTTTTTTTTTTTTTTTTTTTTTTTTTTTTTTTTTTTTTTTTTTTTTTTTTTTTTTTTTTTTTT
modifications: phosphorothioates every 8 nt, FeBABE-conjugated
B4: binds [6]; binds (HisFlag-Mlh1;Mlh3 [7]).

— publication PMC5448812, “Distinct DNA-binding surfaces in the ATPase and linker domains of MutLγ determine its substrate specificities and exert separable functions in meiotic recombination and mismatch repair”
